Reference: patent US9370316B2, “MRI estimation of contrast agent concentration using a neural network approach” (HENRY FORD HEALTH SYSTEM, priority 2007, dated 2016)

Test: MRI (TOMROP) after injection of Gd-BSA in 9 L rat model of cerebral gliosarcoma
Format: in vivo, Fisher 344 rats
Conditions: rats with 9 L cerebral tumor
From the text: Given a “gold-standard” map of CA concentration, an ANN is trainable to directly estimate CA concentration from MRI image sets in which the time-varying behavior of the images depends, albeit nonlinearly, on CA concentration. Some of our studies using TOMROP (“T One by Multiple Read Out Pulses”) image sets as inputs in a set of tubular gel phantoms are supportive. In accordance with some embodiments, without limitation, an ANN for estimating CA concentration in the brain tissue of 9 male Fisher rats, using as inputs TOMROP signal changes after injection of Gd-BSA in a 9 L rat model of cerebral gliosarcoma (Ewing et al. 2006), was designed, trained, optimized, and tested. The MRI experiment was followed by quantitative autoradiography (“QAR”) using radioiodinated serum albumin (“RISA”), thus essentially replicating the MRI as to its timing, procedures, and indicator. The autoradiogram of the QAR procedure served as the training set.
Animal Studies: As part of our studies to compare MRI estimates of transfer constant to QAR estimates (results not included here), nine animals (Fisher 344 rats) with 9 L tumor (Ewing et al. 2006) were studied. Mean tumor age was 14.6±0.7 days (range 14 to 16 days) for all animals. […]

## Gadolinium-labeled Bovine Serum Albumin [Gd-BSA]
  Extravasation of Gd-BSA: occurred within the tumors and at tumor borders in all animals
